Measured values taken from publication PMC5362245, “Depletion of Arabidopsis SC35 and SC35-like serine/arginine-rich proteins affects the transcription and splicing of a subset of genes”.

Legend:
[1] = molecular target: T1, SCL30 (UniProt Q8L3X8 1-262); experiment: EMSA; 2 ug tRNA, 10 nM labeled RNA; 20 ul, 2 ug tRNA, 10 nM biotin-RNA, LightShift Chemiluminescent RNA EMSA kit buffer (salt and pH not stated), 30 min room temperature; 6% native PAGE in 0.5x TBE; settings: protein: recombinant; tags: His; label: 5' biotin
T1 sequence: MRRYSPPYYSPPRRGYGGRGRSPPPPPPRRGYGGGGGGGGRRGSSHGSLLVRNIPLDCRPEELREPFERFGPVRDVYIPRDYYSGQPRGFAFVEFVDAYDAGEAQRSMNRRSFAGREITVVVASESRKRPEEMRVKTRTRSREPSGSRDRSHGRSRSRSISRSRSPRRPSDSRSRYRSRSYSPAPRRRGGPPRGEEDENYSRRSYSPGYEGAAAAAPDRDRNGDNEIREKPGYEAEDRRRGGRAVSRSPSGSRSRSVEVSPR

[2] = molecular target: T1, SCL30; experiment: competition; mutated probe failed to compete with N1; 20 ul, 2 ug tRNA, 10 nM biotin-RNA, LightShift Chemiluminescent RNA EMSA kit buffer (salt and pH not stated), 30 min room temperature; 6% native PAGE in 0.5x TBE; settings: protein: recombinant; tags: His
[3] = molecular target: T1, SCL30; experiment: competition; 0.625-5 uM unlabeled RNA vs 10 nM N1, 0.4 ug SCL30; labeled binding abolished at 5 uM; 20 ul, 2 ug tRNA, 10 nM biotin-RNA, LightShift Chemiluminescent RNA EMSA kit buffer (salt and pH not stated), 30 min room temperature; 6% native PAGE in 0.5x TBE; settings: protein: recombinant; tags: His; label: none

Q: Does AGAUUAAAGAAGAGGAAAGGAGAAGG (ssRNA) [AT1G53250 AGAAGA RNA probe] bind [1]?
A: binds

Q: Does AGAUUAAUCUUCUGGAAAGGAGAAGG (ssRNA) [AT1G53250 mutated RNA probe (AGAAGA to UCUUCU)] bind [2]?
A: no binding

Q: Does AGAUUAAAGAAGAGGAAAGGAGAAGG (ssRNA) [AT1G53250 RNA, unlabeled competitor] bind [3]?
A: binds
